Data: the supplement of paper PMC10567573
± gives the standard deviation.

Assay: protein stability index of a GFP-peptide fusion (GPS, HEK-293T) (PSI 1-6); higher = more stable
Details: c terminus: a fixed tail appended
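Note: 24-mer peptide tiles fused after GFP, lentivirally expressed, FACS-sorted into six equal bins by GFP/DsRed ratio, decoded by Illumina sequencing, PSI is the read-weighted mean bin number.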

Row | Sequence | protein stability index (treatment: DMSO) | protein stability index (treatment: MLN4924 1 uM, 8 h)
1 | VNDHLLNFVRERTLDKRWRVRKEA [PDS5B] | 2.74 ± 0.44 | 3.08 ± 0.35
2 | ELAEIFRASGEHVTDEEIESLMKD [TNNC2] | 5 ± 0.41 | 5.34 ± 0.33
3 | RPSLVIHLRIHTGEKPYKCTHCSK [ZNF449] | 2.51 ± 0.49 | 2.31 ± 0.54
4 | QYNRSSNSNGGNLNSPPGPHSAKT [CDC14A] | 4.42 ± 0.19 | 4.33 ± 0.29
5 | STWALYGRAVDQDKVLRFAQQIRL [MYORG] | 2.29 ± 0.23 | 2.25 ± 0.33
6 | MAAAAEERMAEEGGGGQGDGGSSL [FBXO28] | 5.45 ± 0.29 | 5.57 ± 0.33
7 | QPIRGVEGSDYINASFIDGYRQQK [PTPRD] | 4.31 ± 0.27 | 4.37 ± 0.19
8 | TCVAVGSPMPYVKWMLGAEDLTPE [PTPRD] | 2.97 ± 0.33 | 3.14 ± 0.38
9 | NDVRQAARSAASYMLFDPKDSVMQ [P3H4] | 3.97 ± 0.12 | 4.08 ± 0.39
10 | GLEGLFEDIDTSMYDNELWAPASE [SERTAD1] | 3.79 ± 0.05 | 3.81 ± 0.29
11 | FSTVWLCWDMQGKRFVAMKVVKSA [SRPK2] | 2.46 ± 0.63 | 2.46 ± 0.28
12 | WNVLMWTSLFLGNGVLLCFYSQEW [SOAT1] | 2.99 ± 0.93 | 2.7 ± 0.38
13 | QLPISSENDSTPTVSTSEVTSQQE [TAF7L] | 5.53 ± 0.28 | 5.5 ± 0.13
14 | IPGFKFDNSLINQIENLNIQVEDI [LOXL2] | 3.51 ± 0.18 | 3.37 ± 0.38
15 | ETFRQQFRQFGYQDSPGPHEALSR [ZNF396] | 3.34 ± 0.22 | 3.68 ± 0.043
16 | NFSIVPYEKKFDTFIPLEPLPQIP [SPATS1] | 3.04 ± 0.33 | 2.97 ± 0.34
17 | WTALHFAAQNGDESSTRLLLEKNA [RIPK4] | 3.4 ± 0.08 | 3.28 ± 0.33
18 | DHEDFTGSSSLGFTSSPSPFSSSS [FCHO1] | 4.45 ± 0.15 | 4.37 ± 0.14
19 | EEELIRIFQEQQKKWQQYRSVRRE [FAM9B] | 3.92 ± 0.33 | 4.07 ± 0.49
20 | VAKCLIGVNYPKPMVNHAEASRLN [CRY1] | 2.5 ± 0.14 | 2.46 ± 0.38
21 | CQSGYFSSMFSGSWKESSMNIIEL [GMCL1] | 2.53 ± 0.37 | 2.34 ± 0.77
22 | VCIVQKNDTKKMYAMKYMNKQKCV [STK32A] | 2.21 ± 0.11 | 2.5 ± 0.45
23 | HPDSPATGAHWMRQPVSFHRVKLT [TBX6] | 3.16 ± 0.16 | 3.23 ± 0.32

Row | Sequence | protein stability index (treatment: DMSO) | protein stability index (treatment: MLN4924 1 uM, 8 h)
24 | LLIDFAYTSQITVEEGNVQTLLPA [KLHL20] | 2.29 ± 0.5 | 1.94 ± 0.12
25 | RIRAILSTYRKRTPVMEGYVEVKE [LOXL2] | 2.62 ± 0.35 | 2.67 ± 0.38
26 | LNFWNKQDTLELESPSLTSTPVCS [MYBL2] | 3.58 ± 0.12 | 3.63 ± 0.2
27 | DSQQPGKRRKDSEEEAASPEGKRV [FANCE] | 5.66 ± 0.13 | 5.5 ± 0.25
28 | GDKCHSLVGKPKIFIIQACRGNQH [CASP6] | 2.19 ± 0.3 | 2.33 ± 0.66
29 | DPGQVGLINSNVSMVDLTSVTLED [FAN1] | 5.05 ± 0.092 | 4.79 ± 0.2
30 | KFLIWDTAGQERFRALAPMYYRGS [RAB22A] | 2.39 ± 0.23 | 2.55 ± 0.33
31 | GSDTGASLKLASSELERLIVPNSN [JUNB] | 4.31 ± 0.057 | 4.15 ± 0.17
32 | ETSPLPGMLAPAAGPAFDSDPEIS [PPFIA4] | 5.48 ± 0.29 | 5.38 ± 0.31
33 | ALVYLPGVIAAIVQLHNGTKYKKF [STEAP1] | 2.73 ± 0.44 | 2.75 ± 0.68
34 | QQELRELRRELELLGRERDRVQVE [PRPH] | 4.06 ± 0.52 | 4.39 ± 0.29
35 | DDDFSIHAAHVVCRELGYVEAKSW [LOXL2] | 2.72 ± 0.24 | 2.83 ± 0.33
36 | TTSEEAVGGATPDQTTSEETVGGA [HDAC6] | 5.5 ± 0.32 | 5.57 ± 0.27
37 | EALGHMFMYFLRGSLPWQGLKADT [CSNK1G1] | 3.63 ± 0.22 | 3.19 ± 0.4
38 | ESKTDGDDTETVPSEQSHASGKLR [TCF25] | 5.54 ± 0.26 | 5.56 ± 0.4
39 | EMLAAACQMFLGKTEAEIAHIALE [FLOT1] | 3.15 ± 0.81 | 2.78 ± 0.34
40 | LLDQIREGAQLKKVEQNSRPVSCS [WASL] | 4.852 ± 0.026 | 4.63 ± 0.24
41 | RGCGGTDIELDAARGDAVCTACGS [BRF1] | 4.9 ± 0.24 | 4.75 ± 0.26
42 | YGRSWESYSSCGDFHYCDREHVCR [RBMY1A1] | 2.65 ± 0.72 | 2.66 ± 0.35
43 | FRKFIPKCSKIVIDFDSINSRPSQ [DCTD] | 2.4 ± 0.27 | 2.15 ± 0.33
44 | KKKGMYRKAITEAANAARHVAPEI [PWWP2B] | 4.33 ± 0.045 | 4.5 ± 0.28
45 | LKRRFSRLENRYEALAKQVASEMR [DAPK3] | 2.47 ± 0.26 | 2.69 ± 0.17
46 | VSLHDRIYVIGGYDGRSRLSSVEC [KLHL12] | 1.96 ± 0.16 | 2.19 ± 0.17

Row | Sequence | protein stability index (treatment: DMSO) | protein stability index (treatment: MLN4924 1 uM, 8 h)
47 | ESKLLGSNSSRMYFTQTLLPGLAG [MLH1] | 3.12 ± 0.24 | 3.12 ± 0.5
48 | SELQAYIAQCQDSPTSGKFRRGSG [MCOLN1] | 4.21 ± 0.075 | 4.31 ± 0.15
49 | FRRGSGSACSLLCCCGRDPSEEHS [MCOLN1] | 3.58 ± 0.35 | 3.33 ± 0.24
50 | TEPEDDRGPVVPKHSTFGQSLTQR [GNAS] | 4.89 ± 0.31 | 4.85 ± 0.2
51 | LECVKFASHCLMNHPDLAKDLTEY [PDS5B] | 2.62 ± 0.17 | 2.77 ± 0.78
52 | THQHWQQFEPQLTLWDVFGANKEV [RSAD1] | 2.65 ± 0.34 | 2.66 ± 0.24
53 | FGGTGIPFGESNGNGVHVCNVKYK [KLHDC10] | 2.52 ± 0.35 | 3.06 ± 0.51
54 | RTTVFQYPVGWPPVQELPPSLRAP [ZMAT5] | 2.8 ± 0.17 | 2.79 ± 0.29
55 | SASSSTTCCESTQRSVSDVASGST [IRX6] | 5.12 ± 0.26 | 5.26 ± 0.11
56 | DWVSDWSSRPENIPPKEFHFRHPK [BNIP3L] | 3.79 ± 0.27 | 3.68 ± 0.093
57 | DENSSDGRYVKENCKPLKSYMLQD [CLK3] | 4.57 ± 0.49 | 4.36 ± 0.11
58 | FDHPIPRVFQNRFSTQYRCFSVSM [UFD1] | 2.89 ± 1 | 2.45 ± 0.6
59 | QLIEEGYVGEPLVCEVQVHGGSLL [GFOD1] | 2.44 ± 0.15 | 2.46 ± 0.39
60 | FVLNAAQCSMPLHVAPLLAAAGLH [NR2F2] | 3.13 ± 0.25 | 2.49 ± 0.48
61 | PPSSPRTLRLEKLGHPALSQEEGK [PPFIA4] | 5 ± 0.15 | 5.19 ± 0.31
62 | EDTHVQIGQVHEEFKQNIENVSVE [FCHO1] | 5.48 ± 0.27 | 5.49 ± 0.21
63 | VNNTTLTNSTPLRAACFDGHLEIV [FEM1C] | 2.76 ± 0.34 | 2.61 ± 0.38
64 | GARSKGQCPEPPIVVHCSAGIGRT [PTPN9] | 3.46 ± 0.32 | 3.77 ± 0.46
65 | QWLVSQLSAASPDTGHDSDKSDQS [TRAF3IP2] | 4.66 ± 0.16 | 4.73 ± 0.47
66 | LEEGKHSSHEVKALGAMWKLHKSQ [TRIM9] | 3.83 ± 0.22 | 4.22 ± 0.19
67 | MASPPRCSPTAHDRECKLPPPSAP [WDR88] | 4.67 ± 0.25 | 4.83 ± 0.24
